Measured values published in patent publication US8168592B2 (Amgen Inc., priority 2005, dated 2012).
Where two headings read alike, the source gives them in different places. Bridge positions count the residues as written; N and C are the ends. Square brackets hold non-standard residues; d marks the D form. Peptide text beside a SMILES is read from it. Oic = O=C(O)[C@@H]1C[C@@H]2CCCC[C@@H]2N1; Phe(4-I) = N[C@@H](Cc1ccc(I)cc1)C(=O)O; hArg = N=C(N)NCCCC[C@H](N)C(=O)O; Cit = NC(=O)NCCC[C@H](N)C(=O)O; PEG = not defined here

Target: T1, CGRP1 receptor (Homo sapiens, UniProt O60894+Q16602)
T1 construct: SK-N-MC cells express CRLR and RAMP1, which form CGRP1 receptor; endogenous in cells; host or cells: SK-N-MC human neuroblastoma cells
Assay: in vitro CGRP1 receptor mediated cAMP assay in SK-N-MC cells
Assay type: cell-based
In short: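 Intracellular cAMP served as the Gs-coupled CGRP1 readout in endogenously expressing SK-N-MC cells. After a 15-minute room-temperature step in plasma-free medium, cell lysates (30 minutes, 37° C) went into a competitive ELISA with a cAMP-AP conjugate and anti-cAMP antibody for 1 hour, then a 30-minute substrate enhancer step before reading.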

[1] = Table 2C, unconjugated peptide, read-out: Peptide IC50

T1 sequence (Q16602 23-461): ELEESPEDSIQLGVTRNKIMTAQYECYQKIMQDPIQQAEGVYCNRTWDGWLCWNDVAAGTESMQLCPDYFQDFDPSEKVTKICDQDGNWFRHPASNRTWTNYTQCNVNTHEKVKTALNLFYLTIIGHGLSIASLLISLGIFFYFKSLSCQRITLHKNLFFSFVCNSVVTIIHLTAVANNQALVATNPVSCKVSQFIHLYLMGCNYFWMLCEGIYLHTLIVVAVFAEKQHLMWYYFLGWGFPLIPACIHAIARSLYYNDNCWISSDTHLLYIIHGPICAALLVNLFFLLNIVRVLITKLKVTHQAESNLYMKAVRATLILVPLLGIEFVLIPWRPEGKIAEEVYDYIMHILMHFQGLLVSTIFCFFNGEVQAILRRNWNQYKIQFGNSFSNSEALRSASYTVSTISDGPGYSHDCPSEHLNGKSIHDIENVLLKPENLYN
T1 sequence (O60894 27-148): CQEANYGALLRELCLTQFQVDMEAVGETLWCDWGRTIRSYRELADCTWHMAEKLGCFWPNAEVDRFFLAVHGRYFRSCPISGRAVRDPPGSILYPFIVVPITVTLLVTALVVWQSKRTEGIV

| Molecule | antagonist activity in cAMP assay, in words | IC50 [1] | also measured |
| --- | --- | --- | --- |
| SEQ ID NO:41 (Ac-WVTHRLAGLLS[dR]SGGVVRCNFVPTDVGPFAF-NH2; SMILES CC(=O)N[C@@H](Cc1c[nH]c2ccccc12)C(=O)N[C@H](C(=O)N[C@H](C(=O)N[C@@H](Cc1c[nH]cn1)C(=O)N[C@@H](CCCNC(=N)N)C(=O)N[C@@H](CC(C)C)C(=O)N[C@@H](C)C(=O)NCC(=O)N[C@@H](CC(C)C)C(=O)N[C@@H](CC(C)C)C(=O)N[C@@H](CO)C(=O)N[C@H](CCCNC(=N)N)C(=O)N[C@@H](CO)C(=O)NCC(=O)NCC(=O)N[C@H](C(=O)N[C@H](C(=O)N[C@@H](CCCNC(=N)N)C(=O)N[C@@H](CS)C(=O)N[C@@H](CC(N)=O)C(=O)N[C@@H](Cc1ccccc1)C(=O)N[C@H](C(=O)N1CCC[C@H]1C(=O)N[C@H](C(=O)N[C@@H](CC(=O)O)C(=O)N[C@H](C(=O)NCC(=O)N1CCC[C@H]1C(=O)N[C@@H](Cc1ccccc1)C(=O)N[C@@H](C)C(=O)N[C@@H](Cc1ccccc1)C(N)=O)C(C)C)[C@@H](C)O)C(C)C)C(C)C)C(C)C)[C@@H](C)O)C(C)C) | well tolerated |  |  |
| SEQ ID NO:14 (Ac-WVTHRLAGLLSRSGGVVC(PEG)NNFVPTDVGPFAF-NH2; reading uncertain) | little effect on the antagonist activity of the parent peptide |  |  |
| CC(=O)N[C@@H](Cc1c[nH]c2ccccc12)C(=O)N[C@H](C(=O)N[C@H](C(=O)N[C@@H](Cc1c[nH]cn1)C(=O)N[C@@H](CCCCNC(=N)N)C(=O)N[C@@H](CC(C)C)C(=O)N[C@@H](C)C(=O)NCC(=O)N[C@@H](CC(C)C)C(=O)N[C@@H](CC(C)C)C(=O)N[C@@H](CO)C(=O)N[C@@H](CCCNC(=N)N)C(=O)N[C@@H](CO)C(=O)NCC(=O)NCC(=O)N[C@H](C(=O)N[C@H](C(=O)N[C@@H](CCCNC(=N)N)C(=O)N[C@@H](CCCCN)C(=O)N[C@@H](CC(N)=O)C(=O)N[C@@H](Cc1ccccc1)C(=O)N[C@H](C(=O)N1CCC[C@H]1C(=O)N[C@H](C(=O)N[C@@H](CC(=O)O)C(=O)N[C@H](C(=O)NCC(=O)N1CCC[C@H]1C(=O)N[C@@H](Cc1ccccc1)C(=O)N[C@@H](C)C(=O)N[C@@H](Cc1ccccc1)C(N)=O)C(C)C)[C@@H](C)O)C(C)C)C(C)C)C(C)C)[C@@H](C)O)C(C)C [compound 865] |  | 0.44 nM |  |
| H-CGGGGGGGVTHRLAGLLSRSGGVVKNNFVPTDVGPFAF-NH2 [compound 3] |  |  | IC50 (Table 3, unconjugated CGRP peptide analogs, n = 2-4, read-out: IC50): 0.72 nM |
| SEQ ID NO:16 (Ac-WVTHRLAGLLSRSGGVVRK(PEG)NFVPTDVGPFAF-NH2; reading uncertain) |  |  | improved potency relative to native CGRP(8-37) (SEQ ID NO:1) (cAMP assay): about 12 fold; loss in antagonist activity on PEGylation relative to the unconjugated parent peptide (cAMP assay): three |
| SEQ ID NO:27 (WVTHXLAGLLSRSGGVVRKNFVPTDVGPFAF; CGRP peptide; MOD_RES (1)..(1): …ON; MISC_FEATURE (5)..(5): xaa=citrulline; MOD_RES (31)..(31): AMIDATION) | well tolerated |  |  |
| CC(=O)N[C@@H](Cc1c[nH]c2ccccc12)C(=O)N[C@H](C(=O)N[C@H](C(=O)N[C@@H](Cc1c[nH]cn1)C(=O)N[C@@H](CCCNC(=N)N)C(=O)N[C@@H](CC(C)C)C(=O)N[C@@H](C)C(=O)NCC(=O)N[C@@H](CC(C)C)C(=O)N[C@@H](CC(C)C)C(=O)N[C@@H](CO)C(=O)N[C@@H](CCCCNC(=N)N)C(=O)N[C@@H](CO)C(=O)NCC(=O)NCC(=O)N[C@H](C(=O)N[C@H](C(=O)N[C@@H](CCCNC(=N)N)C(=O)N[C@@H](CCCCN)C(=O)N[C@@H](CC(N)=O)C(=O)N[C@@H](Cc1ccccc1)C(=O)N[C@H](C(=O)N1CCC[C@H]1C(=O)N[C@H](C(=O)N[C@@H](CC(=O)O)C(=O)N[C@H](C(=O)NCC(=O)N1CCC[C@H]1C(=O)N[C@@H](Cc1ccccc1)C(=O)N[C@@H](C)C(=O)N[C@@H](Cc1ccccc1)C(N)=O)C(C)C)[C@@H](C)O)C(C)C)C(C)C)C(C)C)[C@@H](C)O)C(C)C [compound 864] |  | 0.57 nM |  |
| CC(=O)N[C@@H](Cc1c[nH]c2ccccc12)C(=O)N[C@H](C(=O)N[C@H](C(=O)N[C@@H](Cc1c[nH]cn1)C(=O)N[C@@H](CCCNC(N)=O)C(=O)N[C@@H](CC(C)C)C(=O)N[C@@H](C)C(=O)NCC(=O)N[C@@H](CC(C)C)C(=O)N[C@@H](CC(C)C)C(=O)N[C@@H](CO)C(=O)N[C@@H](CCCNC(N)=O)C(=O)N[C@@H](CO)C(=O)NCC(=O)NCC(=O)N[C@H](C(=O)N[C@H](C(=O)N[C@@H](CCCCNC(=N)N)C(=O)N[C@@H](CCCCN)C(=O)N[C@@H](CC(N)=O)C(=O)N[C@@H](Cc1ccc(I)cc1)C(=O)N[C@H](C(=O)N1[C@H](C(=O)N[C@H](C(=O)N[C@@H](CC(=O)O)C(=O)N[C@H](C(=O)NCC(=O)N2CCC[C@H]2C(=O)N[C@@H](Cc2ccc(I)cc2)C(=O)N[C@@H](C)C(=O)N[C@@H](Cc2ccccc2)C(N)=O)C(C)C)[C@@H](C)O)C[C@@H]2CCCC[C@@H]21)C(C)C)C(C)C)C(C)C)[C@@H](C)O)C(C)C [compound 136] (Ac-WVTH[Cit]LAGLLS[Cit]SGGVV[hArg]KN[Phe(4-I)]V[Oic]TDVGP[Phe(4-I)]AF-NH2) |  |  | IC50 (Table 2A, read-out: IC50): 2.34 nM |
| Ac-WVTHQLAGLLSQSGGVVRKNFVPTDVGPFAF-NH2 [compound 857] |  | 0.53 nM |  |
| 805 (Ac-WVTHRLAGLLSRSGGVVRC(20 kDa MeO‑PEG)NFVPTDVGPFAF-NH2) [compound 805] |  |  | IC50 (Table 2D, read-out: IC50): 1.33 nM |
| SEQ ID NO:28 (WVTHXLAGLLSRSGGVVRKNFVPTDVGPFAF; CGRP peptide; MOD_RES (1)..(1): …ON; MISC_FEATURE (5)..(5): xaa=citrulline; MISC_FEATURE (19)..(19): PEGylated; MOD_RES (31)..(31): AMIDATION) | relatively minor loss of in vitro antagonist activity |  |  |
| CC(=O)N[C@@H](Cc1c[nH]c2ccccc12)C(=O)N[C@H](C(=O)N[C@H]1CCC(=O)NCCCC[C@@H](C(=O)NCC(=O)N[C@@H](CC(C)C)C(=O)N[C@@H](CC(C)C)C(=O)N[C@@H](CO)C(=O)N[C@@H](CCCNC(N)=O)C(=O)N[C@@H](CO)C(=O)NCC(=O)NCC(=O)N[C@H](C(=O)N[C@H](C(=O)N[C@@H](CCCCNC(=N)N)C(=O)N[C@@H](CCCCN)C(=O)N[C@@H](CC(N)=O)C(=O)N[C@@H](Cc2ccccc2)C(=O)N[C@H](C(=O)N2CCC[C@H]2C(=O)N[C@H](C(=O)N[C@@H](CC(=O)O)C(=O)N[C@H](C(=O)NCC(=O)N2CCC[C@H]2C(=O)N[C@@H](Cc2ccccc2)C(=O)N[C@@H](C)C(=O)N[C@@H](Cc2ccccc2)C(N)=O)C(C)C)[C@@H](C)O)C(C)C)C(C)C)C(C)C)NC(=O)[C@H](CC(C)C)NC(=O)[C@H](CCCNC(N)=O)NC(=O)[C@H](Cc2c[nH]cn2)NC1=O)C(C)C [compound 907] (Ac-WVEH[Cit]LKGLLS[Cit]SGGVV[hArg]KNFVPTDVGPFAF-NH2; lactam 3-7) |  | 0.83 nM |  |
| SEQ ID NO:21 (WVTHXLAGLLSRSGGVVRKNFVPTDVGPFAF; CGRP peptide; MOD_RES (1)..(1): …ON; MISC_FEATURE (5)..(5): xaa=homoarginine; MOD_RES (31)..(31): AMIDATION) | well tolerated |  |  |
